pKd: −log10 of the molar value.
Experiments:
[1] = target: wild-type apelin receptor tagged C-terminally with eGFP (human) (UniProt P35414); assay: fluorescent ligand binding on cells (high content confocal imaging); CHO-K1 cells transiently transfected with receptor-eGFP; apelin647 300 nM or ELA647 1 µM in HBSS, 90 min, room temperature, washed and fixed; mean membrane fluorescence of eGFP-positive cells as % WT; non-specific binding with 10 µM [Pyr1]apelin-13
[2] = target: apelin receptor NxStaR (stabilised human apelin receptor) (human) (UniProt P35414); assay: SPR; Biacore 8K+; receptors immobilised on NTA chip (Ni-NTA capture and amine coupling); 10 °C; pH 6.0 buffer ([…] MES, […] NaCl, 0.02% DDM, 5% DMSO); single-cycle, four concentrations; 1:1 model
[3] = target: apelin receptor NxStaR (stabilised human apelin receptor) (human) (UniProt P35414); assay: SPR; Biacore 8K+; receptors immobilised on NTA chip (Ni-NTA capture and amine coupling); 10 °C; pH 7.5 buffer (0.01 M HEPES, […] NaCl, 0.02% DDM, 5% DMSO); single-cycle, four concentrations; 1:1 model
[4] = target: apelin receptor NxStaR (stabilised human apelin receptor) (human) (UniProt P35414); assay: SPR; Biacore T200; receptor immobilised on NTA chip (Ni-NTA capture and amine coupling); 10 °C; 0.01 M HEPES pH 7.5, […] NaCl, 0.02% DDM, 5% DMSO; single-cycle, 6.25-100 nM for Apelin-13 and ΔC2; 1:1 model

Sequence of wild-type apelin receptor tagged C-terminally with eGFP (human) (P35414 whole entry): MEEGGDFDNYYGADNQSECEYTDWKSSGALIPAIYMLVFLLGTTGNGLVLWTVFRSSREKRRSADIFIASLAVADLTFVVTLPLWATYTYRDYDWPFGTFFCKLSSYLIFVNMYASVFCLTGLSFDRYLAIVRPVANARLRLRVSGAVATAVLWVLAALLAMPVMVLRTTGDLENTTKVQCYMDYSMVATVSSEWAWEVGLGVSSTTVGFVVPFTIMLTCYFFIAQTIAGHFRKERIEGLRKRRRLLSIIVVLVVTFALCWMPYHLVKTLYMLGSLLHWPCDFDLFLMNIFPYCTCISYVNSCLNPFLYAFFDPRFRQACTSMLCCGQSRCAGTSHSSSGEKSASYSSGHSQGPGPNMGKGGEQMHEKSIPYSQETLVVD

With ELA647 fluorescently labelled peptide the membrane ELA647 fluorescence (% WT) [1] was 100 % WT.
“NXE'992, chimeric peptide (pyrazole-QRPRL[AIB]S[PipALA]VPFP)” gave a pKd [2] of 7.68 and a pKd [3] of 8.49.
“apelin647 fluorescently labelled peptide” was tested, and the membrane apelin647 fluorescence (% WT) [1] was 100 % WT.
Substance “apelin-13 ΔC2 (C-terminally truncated apelin-13 ending with M11) (peptide)” has a pKd [4] of 8.24.
